Source: US6849258

Key:
[1] = target: human CD2 (CD2 antigen on human PBMC, on COS cells transfected with the entire CD2 molecule, and on CD2-expressing Jurkat cells) (human) (UniProt P06729); experiment: two-colour flow cytometry of human PBMC, biotinylated LO-CD2a (FL1) and Leu-5b-PE (FL2); upper left quadrant
[2] = target: human CD2 (CD2 antigen on human PBMC, on COS cells transfected with the entire CD2 molecule, and on CD2-expressing Jurkat cells) (human) (UniProt P06729); experiment: two-colour flow cytometry of human PBMC, biotinylated LO-CD2a (FL1) and Leu-5b-PE (FL2); upper right quadrant

Sequence of UniProt P06729 (P06729 25-351): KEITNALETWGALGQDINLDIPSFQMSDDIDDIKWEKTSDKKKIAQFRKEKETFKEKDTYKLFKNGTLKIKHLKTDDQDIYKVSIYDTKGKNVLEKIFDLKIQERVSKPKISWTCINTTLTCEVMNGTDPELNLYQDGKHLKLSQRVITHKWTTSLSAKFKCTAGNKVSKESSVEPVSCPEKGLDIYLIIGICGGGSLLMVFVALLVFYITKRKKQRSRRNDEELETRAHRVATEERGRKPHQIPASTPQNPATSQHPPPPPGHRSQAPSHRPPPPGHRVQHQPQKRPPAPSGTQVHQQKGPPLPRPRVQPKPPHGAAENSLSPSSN

Which % gated (quadrant 1UL) [1] does the source give for “Leu-5b, mouse anti-human CD2 monoclonal antibody (Becton Dickinson)” here?
The % gated (quadrant 1UL) was 23.2%.

And the Y mean (quadrant 1UL) [1]?
The Y mean (quadrant 1UL) was 285.

And the Y mean (quadrant 2UR) [2]?
Its Y mean (quadrant 2UR) is 631.
